Measurements published in patent publication US20260210971A1 (Pfizer, published 2026).
Like-named read-outs stand apart in the source and are kept apart here.

Columns and labels:
[1] = biological target: T1, endogenous TL1A of stimulated human peripheral blood (human, UniProt O95150 72-251, limits assumed); experiment: cell-based or functional assay
T1 sequence (looked up): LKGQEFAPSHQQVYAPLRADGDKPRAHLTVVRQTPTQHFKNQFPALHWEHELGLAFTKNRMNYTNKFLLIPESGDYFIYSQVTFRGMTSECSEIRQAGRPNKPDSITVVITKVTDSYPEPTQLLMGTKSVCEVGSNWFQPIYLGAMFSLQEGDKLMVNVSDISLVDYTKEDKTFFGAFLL

[2] = biological target: T2, recombinant soluble cynomolgus monkey TL1A (cynomolgus monkey, UniProt O95150 72-251 (human entry)); experiment: KinExA, equilibrium in solution
T2 construct: also called cyno rsTL1A; cyno TL1A
T2 chain: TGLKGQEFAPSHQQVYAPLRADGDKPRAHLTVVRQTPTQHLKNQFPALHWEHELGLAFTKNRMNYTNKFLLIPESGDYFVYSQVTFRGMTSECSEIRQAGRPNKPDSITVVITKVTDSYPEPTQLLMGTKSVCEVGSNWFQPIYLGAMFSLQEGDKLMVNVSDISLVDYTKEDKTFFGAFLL

[3] = biological target: T3, recombinant soluble murine TL1A (mouse, UniProt Q5UBV8 75-252); experiment: KinExA, equilibrium in solution
T3 construct: also called murine rsTL1A; mouse TL1A
T3 chain: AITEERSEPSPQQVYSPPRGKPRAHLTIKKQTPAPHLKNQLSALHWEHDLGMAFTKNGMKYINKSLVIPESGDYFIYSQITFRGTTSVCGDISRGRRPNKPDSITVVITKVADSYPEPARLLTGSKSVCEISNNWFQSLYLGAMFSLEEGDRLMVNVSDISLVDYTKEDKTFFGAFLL

[4] = biological target: T2, recombinant soluble cynomolgus monkey …; experiment: SPR, IgG captured on anti-hIgG, TL1A injected;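 on t1/2: biacore surface plasmon resonance on a dextran sensor chip, double-referenced sensorgrams fitted to a one-to-one binding model, KD taken as dissociation over association rate constant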
Excerpt: To characterize the binding kinetics of the anti-TL1A antibodies to TL1A by surface plasmon resonance, each anti-TL1A antibody was captured via directly immobilized anti-human IgG (GE Healthcare) onto a carboxymethylated dextran sensor chip surface (CM5) using a Biacore T100 or T200 instrument. Anti-human IgG was immobilized through amine coupling to densities of approximately 4,000-13,000 response units (RU). […] At the end of each cycle, the entire anti-human IgG (hIgG) surface was regenerated by a 30-second pulse of 3M MgCl₂ followed by two consecutive 15-second pulses of PBS-NET. All injections were performed at 25° C. at a collection rate of 10 Hz. All sensorgrams were double referenced by using both a control surface and buffer injections. Rate constants were determined by fitting the data to a 1:1 model in Biacore T100, T200 evaluation software v1.0, or BIAevaluation software v4.1.1 and the equation KD=kd/kₐ.
The anti-TL1A antibodies were captured onto immobilized anti-human Fc on a CM5 sensor chip on a Biacore T100 instrument. […] Rate constants shown in the table were determined by fitting to a 1:1 Langmuir binding model in BiaEvaluation v4.1.1 (fit lines shown in red). Data shown are the average and standard deviation of at least 3 independent surfaces between 2 experiments.

[5] = biological target: T2, recombinant soluble cynomolgus monkey …; experiment: SPR, IgG captured on anti-hIgG, TL1A injected;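 on t1/2: biacore surface plasmon resonance on a dextran sensor chip, double-referenced sensorgrams fitted to a one-to-one binding model, KD taken as dissociation over association rate constant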
[6] = biological target: T3, recombinant soluble murine TL1A; experiment: SPR, IgG captured on anti-hIgG, TL1A injected;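 on koff: biacore measurement on a carboxymethylated dextran chip, double-referenced against a control surface and buffer, rates fitted to a one-to-one binding model, KD from koff over kon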;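 on kon: biacore measurement on a carboxymethylated dextran chip, double-referenced against a control surface and buffer, rates fitted to a one-to-one binding model, KD from koff over kon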
[7] = biological target: T2, recombinant soluble cynomolgus monkey …; experiment: SPR, IgG captured on anti-hIgG, TL1A injected;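 on t1/2: biacore surface plasmon resonance on a dextran sensor chip, double-referenced sensorgrams fitted to a one-to-one binding model, KD taken as dissociation over association rate constant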
Excerpt: (§1) The antibodies were captured via directly immobilized anti-human IgG (GE Healthcare) onto a carboxymethylated dextran sensor chip surface (CM5) using a Biacore T100 or T200 instrument. Anti-human IgG was immobilized through amine coupling to densities of approximately 4,000-13,000 response units (RU). […] At the end of each cycle, the entire anti-hIgG surface was regenerated by a 30-second pulse of 3M MgCl₂ followed by two consecutive 15-second pulses of PBS-NET. […] All injections were performed at 25° C. at a collection rate of 10 Hz. All sensorgrams were double referenced by using both a control surface and buffer injections. Rate constants were determined by fitting the data to a 1:1 model in Biacore T100, T200 evaluation software v1.0, or BIAevaluation software v4.1.1 and the equation KD=Kd/kₐ.
(§2) At the highest cytokine concentrations, the dissociation phase was sometimes extended to 60 minutes to achieve at least a 5% decrease in binding signal.

[8] = biological target: T3, recombinant soluble murine TL1A; experiment: SPR, IgG captured on anti-hIgG, TL1A injected;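 on koff: biacore measurement on a carboxymethylated dextran chip, double-referenced against a control surface and buffer, rates fitted to a one-to-one binding model, KD from koff over kon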;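 on kon: biacore measurement on a carboxymethylated dextran chip, double-referenced against a control surface and buffer, rates fitted to a one-to-one binding model, KD from koff over kon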
Excerpt: as §1, §2

[9] = biological target: T4, recombinant soluble rat TL1A (rat, UniProt Q8K3Y7 76-252); experiment: SPR, IgG captured on anti-hIgG, TL1A injected
T4 construct: also called rat rsTL1A
T4 sequence: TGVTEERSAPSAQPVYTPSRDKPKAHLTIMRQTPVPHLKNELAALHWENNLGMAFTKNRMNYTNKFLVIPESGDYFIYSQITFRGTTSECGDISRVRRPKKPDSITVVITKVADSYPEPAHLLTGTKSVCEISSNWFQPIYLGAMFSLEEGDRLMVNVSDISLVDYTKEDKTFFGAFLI

[10] = biological target: T5, recombinant soluble rabbit TL1A (rabbit); experiment: SPR, IgG captured on anti-hIgG, TL1A injected
T5 construct: also called rabbit rsTL1A
T5 chain: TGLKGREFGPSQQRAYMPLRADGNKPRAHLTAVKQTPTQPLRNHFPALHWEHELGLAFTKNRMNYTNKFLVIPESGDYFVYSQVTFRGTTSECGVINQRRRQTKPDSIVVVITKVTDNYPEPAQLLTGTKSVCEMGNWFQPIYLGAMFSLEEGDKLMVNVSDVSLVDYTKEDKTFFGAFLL
Excerpt: as §1, §2

B1: anti-TL1A antibody 1D1 (antibody, human IgG1, kappa, V domains shown)
VH: QVQLVQSGAEVKKPGASVKVSCKASGYSFTYYGISWVRQAPGQGLEWMGWISTYNGNTNYARMLQGRVTMTTDTSTRTAYMELRSLRSDDTAVYYCARENYYGSGSYRGGMDVWGQGTTVTVSS
VL: EIVLTQSPATLSLSPGERATLSCRASQSVSSYLAWYQQKPGQAPRLLIYDASNRATGIPARFSGSGSGTDFTLTISSLEPEDFAVYYCQQRSNWPWTFGQGTKVEIKR
notes: Human IgG1 with effector-null triple mutation (hIgG1-3m), kappa; The first binning was done with the antibodies from the hybridoma screen; also called 1D1 parental; Parental 1D1
HWB Assay, average IC50 [1]: 0.248 nM | Kd [2]: 0.384 nM | Kd [3]: 0.383 nM | Kd [4]: 7 nM | koff [4]: 0.0041 s⁻¹ | kon [4]: 600000 M⁻¹ s⁻¹ | Kd [5]: 1.67 nM | Kd [6]: 1.32 nM | Kd [7]: 6.69 nM | koff [7]: 0.0041 s⁻¹ | kon [7]: 600000 M⁻¹ s⁻¹ | t1/2 [7]: 2.82 min | Kd [8]: 7.29 nM | koff [8]: 0.0036 s⁻¹ | kon [8]: 490000 M⁻¹ s⁻¹ | t1/2 [8]: 3.25 min | Kd [9]: 8.14 nM | koff [9]: 0.0134 s⁻¹ | kon [9]: 1.71e+06 M⁻¹ s⁻¹ | t1/2 [9]: 0.867 min | Kd [10]: 1.31 nM | koff [10]: 0.00079 s⁻¹ | kon [10]: 610000 M⁻¹ s⁻¹ | t1/2 [10]: 14.6 min
